The target of assay [1] is human Fc receptor CD64-GST fusion protein (human) (UniProt P12314). In words: ALPHA competition assay: test antibody competes with biotinylated wild-type IgG1 (m7) for the receptor-GST fusion; panel title huCD64 [continued) D].
Assay [2] concerns the target human Fc receptor CD16-GST fusion protein (human) (UniProt P08637). In words: ALPHA competition assay: test antibody competes with biotinylated wild-type IgG1 (m7) for the receptor-GST fusion; panel title huCD16a V.
Another assay has as its target LINGO-1 (human) (UniProt Q96FE5). Description: Cell bridging assay; fit of an essentially flat control curve (see non_binding); the axis on the sheet has no unit, µg/mL is from paragraph 391.

The term IC50 denotes the midpoint of a concentration-inhibition curve.

Sequence of human Fc receptor CD16-GST fusion protein (human) (P08637 17-208): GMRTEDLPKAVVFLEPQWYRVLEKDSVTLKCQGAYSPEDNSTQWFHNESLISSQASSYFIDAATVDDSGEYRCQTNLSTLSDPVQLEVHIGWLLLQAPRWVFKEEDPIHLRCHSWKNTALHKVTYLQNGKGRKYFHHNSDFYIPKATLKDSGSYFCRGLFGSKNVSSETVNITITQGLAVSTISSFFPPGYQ
Sequence of human Fc receptor CD64-GST fusion protein (human) (P12314 16-292 limits assumed): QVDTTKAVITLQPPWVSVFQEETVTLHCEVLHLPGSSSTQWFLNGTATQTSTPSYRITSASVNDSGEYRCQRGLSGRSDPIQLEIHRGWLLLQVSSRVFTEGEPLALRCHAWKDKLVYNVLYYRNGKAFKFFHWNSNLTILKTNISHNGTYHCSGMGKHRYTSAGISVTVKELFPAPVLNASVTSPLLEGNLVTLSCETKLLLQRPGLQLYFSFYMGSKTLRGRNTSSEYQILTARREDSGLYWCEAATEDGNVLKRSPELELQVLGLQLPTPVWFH

Regarding agly 5c8 T299A (JF) (antibody), the concentration for half-maximal inhibition (IC50) in assay [1] was determined as 25 µg/mL; in assay [2] it was 62 µg/mL.

As for huIgG1 (antibody), the C (midpoint parameter of the printed 4-parameter fit) with LINGO-1 (human) is 3.55 µg/mL.
